Assay results from US20060177479A1.

Biological target: Notch receptor expressed on rat esophageal epithelial cells (rat)
Assay: cell-based or functional assay

Notch/CSL signaling (luciferase/Renilla intensity), immobilized Jagged-1/Fc against Fc control: 10 fold
increase in luciferase activity as compared to Fc control plates, 10 nM Jagged-1/Fc precoat, 24 hours: 4 to 10 fold
Substance: Recombinant Rat Jagged-1/Fc chimera (Fc fusion)
